# B1: DSG2 EC2-3 after MBP removal (digested DSG2 EC2-3, bacterial) (domain or fragment, human, UniProt Q14126 149-386, looked up)
# chain: VLDINDNEPVFTQDVFVGSVEELSAAHTLVMKINATDADEPNTLNSKISYRIVSLEPAYPPVFYLNKDTGEIYTTSVTLDREEHSSYTLTVEARDGNGEVTDKPVKQAQVQIRILDVNDNIPVVENKVLEGMVEENQVNVEVTRIKVFDADEIGSDNWLANFTFASGNEGGYFHIETDAQTNEGIVTLIKEVDYEEMKNLDFSVIVANKAAFHKSIRSKYKPTPIPIKVKVKNVKEGI
# notes: Theoretical mass 27.8 kDa after TEV cleavage; not glycosylated (bacterial); also called MBP-free EC2-3; source: E. coli Rosetta(DE3)pLysS, co-expressed with His-Ad3K; co-purified (His GraviTrap), TEV-cleaved, second His GraviTrap, Superdex 200; not shown: MBP, N-terminal, cleaved
# B2: N-terminal His-tagged recombinant Ad3 fibre knob (His-Ad3K) (domain or fragment)
# chain: NSIALKNNTLWTGPKPEANCIIEYGKQNPDSKLTLILVKNGGIVNGYVTLMGASDYVNTLFKNKNVSINVELYFDATGHILPDSSSLKTDLELKYKQTADFSARGFMPSTTAYPFVLPNAGTHNENYIFGQCYYKASDGALFPLEVTVMLNKRLPDSRTSYVMTFLWSLNAGLAPETTQATLITSPFTFSYIREDD
# notes: human adenovirus serotype 3 (HAd3) fibre protein, knob, Asn124 to Asp319 of the full-length protein, GenBank ABB17809.1; The printed GenBank entry holds; also called HAd3 fibre knob; trimeric knob; source: E. coli Rosetta(DE3)pLysS, pETDuet-1; purified (His GraviTrap, Superdex 200); also co-expressed with MBP-DSG2 constructs, in lysate; not shown: His6, N-terminal, kept
# Assays:
# [1] = target: B2; test: SEC-MALS; 50 uL at 1 mg/mL on Superdex 200 Increase 10/300 GL, 150 mM NaCl, 3 mM CaCl2, 10 mM Tris-Cl pH 8.0, 0.5 mL/min; co-expressed and co-purified MBP-free complex, and His-Ad3K alone; conditions: both partners purified
# [2] = target: B2; test: AUC; sedimentation velocity (headed SE-AUC), 42,000 rpm, 20 °C, 3 mM CaCl2, 10 mM Tris pH 8.0, 150 mM NaCl; c(s) by SedFit; co-purified MBP-free complex, and His-Ad3K alone; two concentrations; conditions: both partners purified
# [3] = target: the molecule itself; test: SEC-MALS; 50 uL at 1 mg/mL on Superdex 200 Increase 10/300 GL, 150 mM NaCl, 3 mM CaCl2, 10 mM Tris-Cl pH 8.0, 0.5 mL/min; co-expressed and co-purified MBP-free complex, and His-Ad3K alone
Binder,stoichiometry N [1],stoichiometry N [2],stoichiometry N [3]
B1,1 DSG2 EC2-3 per His-Ad3K trimer,1 receptor per trimeric knob,–
B2,–,–,3

# Reference: publication PMC5976663, “Mapping of Adenovirus of serotype 3 fibre interaction to desmoglein 2 revealed a novel ‘non-classical’ mechanism of viral receptor engagement” (Scientific Reports, 2018)
